From the DeepSol protein solubility set come the findings set out here.

A short description of the data set: soluble on expression in E. coli; label from the status in PepcDB or PDB records.
Take “MVKTEPLQITTELPGRTSAYRIAEVRPQVSGIILKRNFKEGSDIEAGVSLYQIDPATYQATYDSAKGDLAKAQAAANIAQLTVNRYQKLLGTQYISKQEYDQALADAQQANAAVTAAKAAVETARINLAYTKVTSPISGRIGKSNVTEGALVQNGQATALATVQQLDPIYVDVTQSSNDMMRLKQELANGTLKQENGKAKVSLITSDGIKFPQDGTLEFSDVTVDQTTGSITLRAIFPNPDHTMMPGMFVRARLEEGLNPNAILVPQQGLEHHHHHH”: the “soluble on expression in E. coli” value was “soluble”.
Consider “MVKVKIYYKDREWPPEYRKVLEKMKEIIDPVTGESILDSGVLAGLEVKGDTLKVWLKFESNAEYNILGSAAMAYSKIVGDIMEKFALVMFDKVYVYDLGNNPIGIFENKGNGRK”, for which the “soluble on expression in E. coli” value is recorded as “soluble”.
On to “MVLDSGTQVYEQAPPRPPAGSPSQHHKLKPSNGNGPPLYPWPESLGMPLALAVPSALQQQTMWQTFSKLHLEQSSHMRRSESTYSVNSTGRRGRGKAPIGRGCDPGGTLRPAASLPHIAKIRKDVGSSSSKSPCMLVALRPTNMDQEREKFFQSHYTYNPQFEYQEPMPMSVLEKYQEASAQFMNQAVGIIEAVLEKFGTYENFEAATGGQLLTKCQIWSTVRKYMQKEGCVGEIVVQLSEDLLSQAVMMVENSRPTLAINLTGARQYWLEGMLRHEIGTHYLRGVNNSRQPWHSTEGRLQYGLQPANPTEEGLASLHSVLFRKQPFLWRAALLYYTIHQAAHMSFRQLFQDLAQYVQDEGVRWEYCVRAKRGQTDTSQPGCFSKDQVYLDGILRILRHRHTIDFQLLTSLGKVSYEDVEQLRPYGVLDNTRVPHFMKDLERYRQQLEHIMTTNRLDEAELGRLLPD”, for which the “soluble on expression in E. coli” value was “soluble”.
The entry for “MVLEGIHSHDPQARDIAIQYYHAAETTIYDYIARRHPQSAQCVTDFMSTVMSGLSAKAREGHSIEQLCATAALAGEAIKTLLKE” is “not soluble”; for “MVLLHKSTHIFPTDFASVSRAFFNRYPNPYSPHVLSIDTISRNVDQEGNLRTTRLLKKSGKLPTWVKPFLRGITETWIIEVSVVNPANSTMKTYTRNLDHTGIMKVEEYTTYQFDSATSSTIADSRVKFSSGFNMGIKSKVEDWSRTKFDENVKKSRMGMAFVIQKLEEARNPQF” it is “not soluble”.
The entry for “MVLLIIRGDSYEKIKNAIADVHRHAKLTILGKPRIMVPEAADEILEHIVGNIKKPCKKACLVRIEENAPRAIDRIRKIHPPAHIVIVSERHEPYFYLLEDLPKMPLLKGYYKSKSLDSDEEIEESH” is “not soluble”; for “MVLSIERKRAIVQYVKSRKIATVSELAKHFEVHEATIRRDLTSLEKDKKLKRTHGGVMIEEKVVSEPNWKKRSEVRYEEKQRIATLAATMVKDGDTIILDAGTTTGHIATALKDRSKLTVITNDINVASIMRFSPSKVIVTGGVIYPETFILNGMITSGTLQSIHVHKAFVTTPALDIDKGLMHYDEYLIPAKQQMLHSADEVILVTDHTKFGRISLYKYAALDEISSIITGKEIDPVLKEQFEEKGMQIYTTLEHHHHHH” it is “soluble”; for “MVLWVFGYGSLIWNPGFDFDEKLIGYIKDYKRVFDLACIDHRGTPEHPARTCTLEQSTGAICWGAAYCVRGGPEKEKLAMEYLERRECEYDSKTLVEFYTENDTSTPIVTGVIVFTSTPDKVSNKYYLGPAPLEEMARQIATASGPCGNNREYLFKLEKAMFDIEHEEEYVIELANEVRKQLDLPEEVKALLKPIVSHVSVKSQAHVSTRQRVFAS” it is “soluble”.
The entry for “MVLYFIGLGLYDERDITVKGLEIAKKCDYVFAEFYTSLMAGTTLGRIQKLIGKEIRVLSREDVELNFENIVLPLAKENDVAFLTPGDPLVATTHAELRIRAKRAGVESYVIHAPSIYSAVGITGLHIYKFGKSATVAYPEGNWFPTSYYDVIKENAERGLHTLLFLDIKAEKRMYMTANEAMELLLKVEDMKKGGVFTDDTLVVVLARAGSLNPTIRAGYVKDLIREDFGDPPHILIVPGKLHIVEAEYLVEIAGAPMEILRVNV” is “soluble”.
On to “MVMNAILKKTHFSTAEYLADLAVQALIDEVNLTPKPALVDRRGGGAHDDLNLELMEKSAYSLFPMFKAMAEAAEIHGEVNQALREDIGQLGRQGEQRMLQVTHGINTHRGAIWSIGLVLTATALTLYKQEPCLITEICKTAAEIALLEDRFIPKQQFSHGQMVRQKFGINGAKQQAQQGFPIILEFGLVQLQCSRALNTTETEARLNALLAMMAELSDTCVVHRAGLDGLNMMQSGAREVLQLGGCSTNEGQQRLEQLEQNLLRIRASAGGAADLLATLLFLDQAEQHNSSAPQGRRNQWKY”, for which the “soluble on expression in E. coli” value is on record as “not soluble”.
With “MVNTRPPKIDELLKIDPYLHDFQDEISRRYGVFLDYQRRIEECGGMEEFTSSYKQFGLNVQPDNSVKGLEWAPAAEKLALIGDFNNWDQNANVYKKEEHGKWSITVPAKEDGSCPIPHNSVIKIAVSRHGATHFKLSPWATFVTCPNPKETVIYHQNFWNPPEKYQLKEARPARPASLRIYEAHVGISSSEGKINTYREFADDVLPRIQKQGYNAIQLMAVMEHVYYASFGYQVSNFFAVSSRCGTPEDLKYLVDKAHSLGIFMLLDVVHSHASKNVEDGLNQWDGSNGGYFHDNARGYHNLWDSRLFDYTQTETLRFLLSNVRWWVEEYGFDGFRFDGVSSMIYHSHGMNDDFCGGYPMYFGLNADTDSLVYLMLANDFLHKKYPFMITIAEEVSGMPGICRPVEEGGQGFDYRLAMALPDMWIKILKHTSDEDWKIDDIVFNLENRRYAEKHVAYAESHDQALVGDKTIAFWLMDKEMYDFMSTDSPLTPIIDRGLSLHKLIRLITIGLGGEAWLNFIGNEFGHPEWLDFPRVGNGESFHYARRQFNLVDAEYLRYKFLNNWDREMMLLEERTGFLHKGYAYTSWKHDGDKTIVFERGGLVFVINLHPTKSFADYSIGVNTPGRYRIALNSDESKFGGHNRIDNSIKFHTTDDGYAGRRHRLQVYITCRTAIVLEKEDD”, the “soluble on expression in E. coli” value is “not soluble”.
“MVPLVAVVSGPRAQLFACLLRLGTQQVGPLQLHTGASHAARNHYEVLVLGGGSGGITMAARMKRKVGAENVAIVEPSERHFYQPIWTLVGAGAKQLSSSGRPTASVIPSGVEWIKARVTELNPDKNCIHTDDDEKISYRYLIIALGIQLDYEKIKGLPEGFAHPKIGSNYSVKTVEKTWKALQDFKEGNAIFTFPNTPVKCAGAPQKIMYLSEAYFRKTGKRSKANIIFNTSLGAIFGVKKYADALQEIIQERNLTVNYKKNLIEVRADKQEAVFENLDKPGETQVISYEMLHVTPPMSPPDVLKTSPVADAAGWVDVDKETLQHRRYPNVFGIGDCTNLPTSKTAAAVAAQSGILDRTISVIMKNQTPTKKYDGYTSCPLVTGYNRVILAEFDYKAEPLETFPFDQSKERLSMYLMKADLMPFLYWNMMLRGYWGGPAFLRKLFHLGMS”: the “soluble on expression in E. coli” value was “not soluble”.
For the sequence “MVQDQLTSILTTVGLNLMAKLTDNSRSVVISPSEVALSVAKSTLKHCEPLPYELFQSDYESEFRELIEQLENFEAMKVNPSPPVWNFAISEFKKKNFKLSNGKLKKMNFIWINLETNMELSCEKTGAQMAQDKEFKVLSIPLAGDAGKFVVFFPENQEETIEESLKKLNTRKFQRLIDDLVPKFIHFEHPVFKIQSKFFISENLTMTDRGLTHEKEFEVCHGENNDFRRGLLMDRCEYVPYIFRVNRPFIFCVVQNGVPVTMGIFDGN”, the “soluble on expression in E. coli” value is given as “not soluble”.
Consider “MVQHSDEKGGAMTTLAIDIGGTKLAAALIGADGQIRDRRELPTPASQTPEALRDALSALVSPLQAHAQRVAIASTGIIRDGSLLALNPHNLGGLLHFPLVKTLGQLTDLPTIAINDAQAAAWAEYQALEGDITDMVFITVSTGVGGGVVSGGKLLTGPGGLAGHIGHTLADPHGPVCGCGRTGCVEAIASGRGIAAAAQGELAGADAKTIFMRAGQGDEQAQQLIHRSAHVLARLIADIKATTDCQCVVVGGSVGLAEGYLALVETYLAQEPAAFHVDLLAAHYRHDAGLLGAALLAQGEKL”, for which the “soluble on expression in E. coli” value is given as “soluble”.
Then “MVRIIVKNVSKVFKKGKVVALDNVNINIENGERFGILGPSGAGKTTFMRIIAGLDVPSTGELYFDDRLVASNGKLIVPPEDRKIGMVFQTWALYPNLTAFENIAFPLTNMKMSKEEIRKRVEEVAKILDIHHVLNHFPRELSGAQQQRVALARALVKDPSLLLLDEPFSNLDARMRDSARALVKEVQSRLGVTLLVVSHDPADIFAIADRVGVLVKGKLVQVGKPEDLYDNPVSIQVASLIGEINELEGKVTNEGVVIGSLRFPVSVSSDRAIIGIRPEDVKLSKDVIKDDSWILVGKGKVKVIGYQGGLFRITITPLDSEEEIFTYSDHPIHSGEEVLVYVRKDKIKVFEKN”, with “soluble”; and “MVRKMNKLAKRLASTSKSRQPEPESDSDGSEFDFDNAIEEKPMEAMDIEEVESDGDDDERELQAAFAAGLLKDGLNIQVAKKRPIINKSAEMKEKLAEITKDLPWVETLEVVTPHSEMDKKVENDDFQRELNFYKQAEKAVQIAYPRLLNLGIKVLRPTDYYAEMAKSDTHMQKVRKRLLGIQEMKERQEAFRRIREEKKFAVKVQKEVLAAKNTEKKNLAEAVKKHKKGMKQQLEDMLNNVKRHGLDQDDDAPTGAFGDRLGGRGGAGRGGAGRGGSMRNAGELKRKLKSDKFGYGGKKKGMKRNNKESFNDLFGAPRGGFGGRGRGGGRGGRGGRGRR”, with “not soluble”.
The entry for “MVRKVNIIKGNEGQGKRIKFVQLIFVDINGMPKGMEVPITRLEEAIEEGIAFDGSSVPGFQGIEDSDLVFKADPSTYVEVPWDNVARVYGYIYKDGKPYEADPRGVLRRTLERLEKLGIKVYIGPEPEFYLFKKNGSWELEIPDVGGYFDILTLDKAKDIKREIAEYMPYFGLTPEVLHHEVGKAQHEIDFRHDEALKTADNIVSFKYIVKAVAEMHGLYATFMPKPIYGMPGNGMHLHISLWKDGENIFKGEEGLSETALYFIGGLLKHAKALAAVTNPTVNSYKRLVPGYEAPVYISWGYKNRSALIRVPAFWGNGARIEYRCPDPSANSYLAFAAILMAGLDGIKHKIEPFAYVEENVYEMDEKRREEIGIDMLPENLGEALDELERDKVVKEALGGAYRNFVGYKRKEWEEYLDYLEAKNLPKDTKNVTEWELERYFFI” is “soluble”.
The entry for “MVSEPKVPKAPRPPKQPNVQDFQFFPPRLFELLEKEILYYRKTIGYKVPRNPDLPNSAQVQKEEQLKIDEAEPLNDEELEEKEKLLTQGFTNWNKRDFNQFIKANEKWGRDDIENIAREVEGKTPEEVIEYSAVFWERCNELQDIEKTMAQIERGEARIQRRISILEHHHHHH” is “soluble”; for “MVSVEDYYTSEEKICDGIFVGNYGERKGSRYLFQIWDKVNEKIDAKLCIIGKGWSEIPKNSVYYGFVTEREKIDLLAKSKVFVFPSLYEGFALAVTEALSAYLPVVTWDLKWSERYPVAIRVTYPDISSFAEEVVKLLKDEKLRKSIGEKSREL” it is “soluble”.
Take “MVSVIKPEMKMRYYMDGSVNGHEFTIEGEGTGRPYEGHQEMTLRVTMAKGGPMPFAFDLVSHVFCYGHRPFTKYPEEIPDYFKQAFPEGLSWERSLEFEDGGSASVSAHISLRGNTFYHKSKFTGVNFPADGPIMQNQSVDWEPSTEKITASDGVLKGDVTMYLKLEGGGNHKCQFKTTYKAAKKILKMPGSHYISHRLVRKTEGNITELVEDAVAHSLEHHHHHH”: the “soluble on expression in E. coli” value is “soluble”.
The entry for “MVTDHGYKCRITNIVPLSEHEKLFQLRIVDPRERELFTFRPGQFLMLEVPGYGEAPISISSATSNREFIELCIRKAGHVTSALFEAKQGAFVAVRGPFGTSFPMEAMQDHDVLLIAGGLGIAPLRAPLFWINDHRDHYRNVSFLYGAKEPSQMLFTYQFEEWKTVSHIDLHTIVEKPDDQWTGRTGMITLLFDEITIDPKNTWAIVCGPPVMFKFVCTHLDKLGIPMNRMFVSLERHMNCGMGKCCRCMVGSTFTCLDGPVFDYWSVMNLKEAI” is “not soluble”.
